Assay results: US8143216B2, “Modified human growth hormone” (Ambrx, Inc., priority 2004, dated 2012)
Each block holds one molecule with its values, some of them ahead of it.

Key:
[1] = molecular target: T1, human growth hormone receptor on IM-9 cells (Homo sapiens, UniProt P10912); test: IM-9 pSTAT5 bioassay (STAT5 phosphorylation in IM-9 cells); type: cell-based; settings: IM-9; WHO hGH is expressed as unity
T1 construct: host or cells: human IM-9 lymphocyte cell line
T1 sequence (P10912 19-638): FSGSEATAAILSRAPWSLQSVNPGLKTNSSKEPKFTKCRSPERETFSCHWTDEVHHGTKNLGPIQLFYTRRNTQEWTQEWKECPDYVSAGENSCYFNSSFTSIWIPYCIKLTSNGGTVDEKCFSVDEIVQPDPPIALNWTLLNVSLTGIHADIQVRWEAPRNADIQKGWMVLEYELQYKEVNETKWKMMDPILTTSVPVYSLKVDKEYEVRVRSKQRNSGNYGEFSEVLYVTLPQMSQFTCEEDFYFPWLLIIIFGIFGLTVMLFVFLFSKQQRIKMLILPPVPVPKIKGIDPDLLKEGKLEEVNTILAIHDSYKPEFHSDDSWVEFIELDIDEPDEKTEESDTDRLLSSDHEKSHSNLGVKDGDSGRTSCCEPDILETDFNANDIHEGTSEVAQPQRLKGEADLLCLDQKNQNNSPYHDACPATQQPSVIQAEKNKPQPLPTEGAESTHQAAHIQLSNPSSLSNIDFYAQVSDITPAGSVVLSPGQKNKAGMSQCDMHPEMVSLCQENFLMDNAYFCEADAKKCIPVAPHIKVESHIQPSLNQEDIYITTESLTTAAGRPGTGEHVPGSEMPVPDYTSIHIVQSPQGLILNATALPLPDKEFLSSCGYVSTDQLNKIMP
Text: (§1) To further assess the biological activity of modified hGH polypeptides, an assay measuring a downstream marker of hGH's interaction with its receptor was used. The interaction of hGH with its endogenously produced receptor leads to the tyrosine phosphorylation of a signal transducer and activator of transcription family member, STAT5, in the human IM-9 lymphocyte cell line. Two forms of STAT5, STAT5A and STAT5B were identified from an IM-9 cDNA library. See, e.g., Silva et al., Mol. Endocrinol. (1996) 10(5):508-518.
IM-9 cells were stimulated with hGH polypeptides of the present invention. The human IM-9 lymphocytes were purchased from ATCC (Manassas, Va.) and grown in RPMI 1640 supplemented with sodium pyruvate, penicillin, streptomycin (Invitrogen, Carlsbad, San Diego) and 10% heat inactivated fetal calf serum (Hyclone, Logan, Utah). The IM-9 cells were starved overnight in assay media (phenol-red free RPMI, 10 mM Hepes, 1% heat inactivated charcoal/dextran treated FBS, sodium pyruvate, penicillin and streptomycin) before stimulation with a 12-point dose range of hGH polypeptides for 10 min at 37° C. Stimulated cells were fixed with 1% formaldehyde before permeabilization with 90% ice-cold methanol for 1 hour on ice. The level of STAT5 phosphorylation was detected by intra-cellular staining with a primary phospho-STAT5 antibody (Cell Signaling Technology, Beverly, Mass.) at room temperature for 30 min followed by a PE-conjugated secondary antibody. Sample acquisition was performed on the FACS Array with acquired data analyzed on the Flowjo software (Tree Star Inc., Ashland, Oreg.). EC50 values were derived from dose response curves plotted with mean fluorescent intensity (MFI) against protein concentration utilizing SigmaPlot.
The interaction of hGH with its receptor leads to the tyrosine phosphorylation of a signal transducer and activator of transcription family member, STAT5, in the human IM-9 lymphocyte cell line.

[2] = tested on: rat GHR (L43R) expressing BAF3 cell line, 2E2-2B12-F4; test: Proliferation by BrdU labeling; type: cell-based, mouse; settings: WHO hGH is expressed as unity
Experimental: All cell cultures were maintained at 37° C. in a humidified atmosphere of 5% CO2.

rat GHR ECD (L43R) = molecular target: T2, rat GHR ECD (L43R) (Rattus norvegicus, UniProt P16310, L61R); test: Biacore analysis of binding of GH to GHR; settings: rat GHR ECD (L43R) immobilized on a CM5 chip, bivalent analyte model
T2 construct: (GHR ECD, amino acids S29-T238) was cloned into pET20b vector; made in house
T2 sequence (P16310 47-256 L61R): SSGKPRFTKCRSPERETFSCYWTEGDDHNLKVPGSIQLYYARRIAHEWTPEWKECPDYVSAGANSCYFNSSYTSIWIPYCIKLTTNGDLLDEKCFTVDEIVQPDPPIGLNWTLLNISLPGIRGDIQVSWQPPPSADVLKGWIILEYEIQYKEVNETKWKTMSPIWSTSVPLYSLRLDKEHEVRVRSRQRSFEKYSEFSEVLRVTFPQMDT
Experimental: Cloning and purification of rat GH receptor The extracellular domain of rat GH receptor (GHR ECD, amino acids S29-T238) was cloned into pET20b vector (Novagen) between Nde I and Hind III sites in frame with C-terminal 6H is tag. A mutation of L43 to R was introduced to further approximate the human GH receptor binding site (Souza et al., Proc Natl Acad Sci USA. (1995) 92(4): 959-63). Recombinant protein was produced in BL21 (DE3) E. coli cells (Novagen) by induction with 0.4 mM IPTG at 30° C. for 4-5 hours. After lysing the cells, the pellet was washed four times by resuspending in a dounce with 30 mL of 50 mM Tris, pH 7.6, 100 mM NaCl, 1 mM EDTA, 1% Triton X-100, and twice with the same buffer without Triton X-100. […] Refolding was accomplished by means of passing an aliquot of the inclusion body solution through a S100 (Sigma) gel filtration column, equilibrated with 50 mM Tris, pH 7.8, 1 M L-arginine, 3.7 mM cystamine, 6.5 mM cysteamine. Fractions containing soluble protein were combined and dialyzed against 50 mM Tris, pH 7.6, 200 mM NaCl, 10% glycerol. The sample was briefly centrifuged to remove any precipitate and incubated with an aliquot of Talon resin (Clontech), according to manufacturer's instructions. After washing the resin with 20 volumes of dialysis buffer supplemented with 5 mM imidazole, protein was eluted with 120 mM imidazole in dialysis buffer. Finally, the sample was dialyzed overnight against 50 mM Tris, pH 7.6, 30 mM NaCl, 1 mM EDTA, 10% glycerol, centrifuged briefly to remove any precipitate, adjusted to 20% glycerol final concentration, aliquoted and stored at −80 C. Concentration of the protein was measured by OD(280) using calculated extinction coefficient of ε=65,700 M^−1*cm^−1.
Approximately 600-800 RUs of soluble GHR ECD was immobilized on a Biacore™ CM5 chip, using a standard amine-coupling procedure, as recommended by the manufacturer. […] See, e.g., Cunningham et al. J Mol. Biol. (1993) 234(3): 554-63 and Wells J A. Proc Natl Acad Sci USA (1996) 93(1): 1-6).
Various concentrations of wild type or mutant GH (0.1-300 nM) in HBS-EP buffer (Biacore™, Pharmacia) were injected over the GHR surface at a flow rate of 40 μl/min for 4-5 minutes, and dissociation was monitored for 15 minutes post-injection. The surface was regenerated by a 15 second pulse of 4.5M MgCl2. […] Reference cell with no receptor immobilized was used to subtract any buffer bulk effects and non-specific binding.
Kinetic binding data obtained from GH titration experiments was processed with BiaEvaluation 4.1 software (BIACORE™). […] Equilibrium dissociation constants (Kd) were calculated as ratios of individual rate constants (koff/kon).

[3] = Pharmacokinetic studies, single s.c. dose in normal male Sprague-Dawley rats; type: in vivo, rat; settings: single-dose 1 mg/kg bolus s.c., normal male Sprague-Dawley rats
Experimental: Pharmacokinetic properties of PEG-modified growth hormone compounds were compared to each other and to nonPEGylated growth hormone in male Sprague-Dawley rats (261-425 g) obtained from Charles River Laboratories. Catheters were surgically installed into the carotid artery for blood collection. Following successful catheter installation, animals were assigned to treatment groups (three to six per group) prior to dosing. Animals were dosed subcutaneously with 1 mg/kg of compound in a dose volume of 0.41-0.55 ml/kg. Blood samples were collected at various time points via the indwelling catheter and into EDTA-coated microfuge tubes. Plasma was collected after centrifugation, and stored at −80° C. until analysis. Compound concentrations were measured using antibody sandwich growth hormone ELISA kits from either BioSource International (Camarillo, Calif.) or Diagnostic Systems Laboratories (Webster, Tex.). Concentrations were calculated using standards corresponding to the analog that was dosed. Pharmacokinetic parameters were estimated using the modeling program WinNonlin (Pharsight, version 4.1). Noncompartmental analysis with linear-up/log-down trapezoidal integration was used, and concentration data was uniformly weighted.
Rats (n=3-4 per group) were given a single bolus dose of 1 mg/kg hGH wild-type protein (WHO hGH), His-tagged hGH polypeptide (his-hGH), or His-tagged hGH polypeptide comprising non-natural amino acid p-acetyl-phenylalanine at position 92 covalently linked to 30 kDa PEG (30 KPEG-pAF92(his)hGH). Plasma samples were taken over the indicated time intervals and assayed for injected compound as described.
Rats (n=3-6 per group) were given a single bolus dose of 1 mg/kg protein. hGH polypeptides comprising non-natural amino acid p-acetyl-phenylalanine covalently linked to 30 kDa PEG at each of six different positions were compared to WHO hGH and (his)-hGH. Plasma samples were taken over the indicated time intervals and assayed for injected compound as described. Concentration vs time curves were evaluated by noncompartmental analysis (Pharsight, version 4.1). Values shown are averages (+/− standard deviation). Cmax: maximum concentration; terminal t1/2: terminal half-life; AUC0->inf: area under the concentration-time curve extrapolated to infinity; MRT: mean residence time; Cl/f: apparent total, plasma clearance; Vz/f: apparent volume of distribution during terminal phase.

hypophysectomized rats = test: Pharmacodynamic studies in hypophysectomized rats (Example 30); type: in vivo, rat; settings: s.c., compared with the pAF92 30 kDa PEG compound, p<0.0005
Experimental: Hypophysectomized male Sprague-Dawley rats were obtained from Charles River Laboratories. Pituitaries were surgically removed at 3-4 weeks of age. Animals were allowed to acclimate for a period of three weeks, during which time bodyweight was monitored. Animals with a bodyweight gain of 0-8 g over a period of seven days before the start of the study were included and randomized to treatment groups. Rats were administered either a bolus dose or daily dose subcutaneously. Throughout the study rats were daily and sequentially weighed, anesthetized, bled, and dosed (when applicable). Blood was collected from the orbital sinus using a heparinized capillary tube and placed into an EDTA coated microfuge tube. Plasma was isolated by centrifugation and stored at −80° C. until analysis.
The peptide IGF-1 is a member of the family of somatomedins or insulin-like growth factors. IGF-1 mediates many of the growth-promoting effects of growth hormone. IGF-1 concentrations were measured using a competitive binding enzyme immunoassay kit against the provided rat/mouse IGF-1 standards (Diagnosic Systems Laboratories). Significant difference was determined by t-test using two-tailed distribution, unpaired, equal variance. […] Rats (n=5-7 per group) were given either a single dose or daily dose subcutaneously. Animals were sequentially weighed, anesthetized, bled, and dosed (when applicable) daily. […]

[4] = molecular target: T1, human growth hormone receptor on IM-9 cells; test: Inhibition of WHO hGH induced phosphorylation of STAT5 in IM-9 cells; type: cell-based
Text: as §1

- EC50 [1]: > 200 µM
- EC50 [2]: > 200 µM
Molecule: F92pAF/G120R: hGH with p-acetyl-phenylalanine substituted for F92 and a G120R substitution

- EC50 [1]: > 200 µM
- EC50 [2]: > 200 µM
Molecule: F92pAF/G120R-30KPEG: hGH with G120R and p-acetyl-phenylalanine at position 92 linked to 30 kDa PEG

- kon (rat GHR ECD (L43R)): 90000 M⁻¹ s⁻¹
Molecule: Y35pAF-30KD PEG: hGH polypeptide comprising p-acetyl-phenylalanine at position 35 covalently linked to 30 kDa PEG
- AUC0−>inf [3]: 39,918 ng × hr/ml
- Cl/f [3]: 0.583 mL/min/kg
- Cmax [3]: 1,885 ng/ml
- MRT [3]: 19.16 h
- Terminal t1/2 [3]: 4.85 h
- bodyweight gain at day 9 (hypophysectomized rats): greater weight gain was observed

B1: rat GHR (L43R) extra cellular domain: extracellular domain of rat GH receptor (amino acids S29-T238) with L43 to R mutation (protein)
chain: SSGKPRFTKCRSPERETFSCYWTEGDDHNLKVPGSIQLYYARRIAHEWTPEWKECPDYVSAGANSCYFNSSYTSIWIPYCIKLTTNGDLLDEKCFTVDEIVQPDPPIGLNWTLLNISLPGIRGDIQVSWQPPPSADVLKGWIILEYEIQYKEVNETKWKTMSPIWSTSVPLYSLRLDKEHEVRVRSRQRSFEKYSEFSEVLRVTFPQMDT
modifications: left off: small tags and cut ends
notes: extracellular domain of rat GH receptor (amino acids S29-T238) with L43 to R mutation
- competition against hGH stimulated pSTAT5 phosphorylation / antagonist potency [4]: compete effectively against hGH stimulated pSTAT5 phoshorylation
